The data set deals with GST-TCF-4 DBD (UniProt Q9NQB0 265-496). Description: EMSA; EMSA, 0.5 ug GST-TCF-4 DBD or GST; buffer, salt, pH and temperature not stated (as in Hlubek et al 2004). To be noted: protein: recombinant; tags: GST; label: end label (probe); blunt. On the technique in general: In EMSA bound probe runs differently from free probe, usually more slowly.

Two molecules from article PMC2361298, “Securin (hPTTG1) expression is regulated by β-catenin/TCF in human colorectal carcinoma” can be followed below.

Sequence of GST-TCF-4 DBD (Q9NQB0 265-496): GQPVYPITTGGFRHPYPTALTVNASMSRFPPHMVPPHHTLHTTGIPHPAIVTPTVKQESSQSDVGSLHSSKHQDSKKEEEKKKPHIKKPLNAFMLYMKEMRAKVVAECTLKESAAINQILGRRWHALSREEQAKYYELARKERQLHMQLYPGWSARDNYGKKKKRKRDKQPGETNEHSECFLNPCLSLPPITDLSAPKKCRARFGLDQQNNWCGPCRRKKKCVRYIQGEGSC

B1: securin-TBE (wt) (dsDNA)
DNA 1: ATAAATCACTATCAAAGGATAGAATTT
DNA 2: AAATTCTATCCTTTGATAGTGATTTAT
B1: the binding result is recorded as “binds”.

B2: securin-mutTBE (mt) (dsDNA)
DNA 1: ATAAATCACTGCCAAAGGATAGAATTT
DNA 2: AAATTCTATCCTTTGGCAGTGATTTAT
For the molecule B2, the binding result is recorded as “no binding”.
